Test results published in patent publication US20190374506A1 (BETH ISREAL DEACONESS MEDICAL CENTER, published 2019).

Target: T1, HA-PTEN (human, UniProt P60484 1-403)
T1 construct: Expressed in DU145 cells and immunoprecipitated with anti-PTEN antibody for mass spectrometry; also called exogenous PTEN; pcDNA3-HA-PTEN; not shown: HA tag
Assay: anti-PTEN immunoprecipitation from DU145 cells transfected with HA-PTEN, SDS-PAGE, mass-spectrometric peptide sequencing of the bands (association in the precipitate)
Text: FIG. 2A is a Western blot. Lysates from DU145 cells transfected with HA-PTEN were immunoprecipitated with an anti-PTEN antibody followed by mass-spectrometric peptide sequencing. WWP1 and NEDD4-1 were identified.
In order to identify the E3 ligases that induce PTEN atypical K27-linked poly-ubiquitination, exogenous PTEN was immunoprecipitated from DU145 cells, followed by identification of the proteins that interacted with PTEN by mass spectrometry (FIG. 2A; FIG. 18).

Row | binding result | Binder
1 | binds | Isoform 2 of Putative RNA-binding protein 15 (other) MRTAGRDPVPRRSPRWRRAVPLCETSAGRRVTQLRGDDLRRPATMKGKERSPVKAKRSRGGEDSTSRGERSKKLGGSGGSNGSSSGKTDSGGGSRRSLHLDKSSSRGGSREYDTGGGSSSSRLHSYSSPSTKNSSGGGESRSSSRGGGGESRSSGAASSAPGGGDGAEYKTLKISELGSQLSDEAVEDGLFHEFKRFGDVSVKISHLSGSGSGDERVAFVNFRRPEDARAAKHARGRLVLYDRPLKIEAVYVSRRRSRSPLDKDTYPPSASVVGASVGGHRHPPGGGGGQRSLSPGGAALGYRDYRLQQLALGRLPPPPPPPLPRDLERERDYPFYERVRPAYSLEPRVGAGAGAAPFREVDEISPEDDQRANRTLFLGNLDITVTESDLRRAFDRFGVITEVDIKRPSRGQTSTYGFLKFENLDMSHRAKLAMSGKIIIRNPIKIGYGKATPTTRLWVGGLGPWVPLAALAREFDRFGTIRTIDYRKGDSWAYIQYESLDAAHAAWTHMRGFPLGGPDRRLRVDFADTEHRYQQQYLQPLPLTHYELVTDAFGHRAPDPLRGARDRTPPLLYRDRDRDLYPDSDWVPPPPPVRERSTRTAATSVPAYEPLDSLDRRRDGWSLDRDRGDRDLPSSRDQPRKRRLPEESGGRHLDRSPESDRPRKRHCAPSPDRSPELSSSRDRYNSDNDRSSRLLLERPSPIRDRRGSLEKSQGDKRDRKNSASAERDRKHRTTAPTEGKSPLKKEDRSDGSAPSTSTASSKLKSPSQKQDGGTAPVASASPKLCLAWQGMLLLKNSNFPSNMHLLQGDLQVASSLLVEGSTGGKVAQLKITQRLRLDQPKLDEVTRRIKVAGPNGYAILLAVPGSSDSRSSSSSAASDTATSTQRPLRNLVSYLKQKQAAGVISLPVGGNKDKENTGVLHAFPPCEFSQQFLDSPAKALAKSEEDYLVMIIVRGAS
2 | binds | Isoform 2 of Structural maintenance of chromosomes protein 2 (other) MHIKSIILEGFKSYAQRTEVNGFDPLFNAITGLNGSGKSNILDSICFLLGISNLSQVRASNLQDLVYKNGQAGITKASVSITFDNSDKKQSPLGFEVHDEITVTRQVVIGGRNKYLINGVNANNTRVQDLFCSVGLNVNNPHFLIMQGRITKVLNMKPPEILSMIEEAAGTRMYEYKKIAAQKTIEKKEAKLKEIKTILEEEITPTIQKLKEERSSYLEYQKVMREIEHLSRLYIAYQFLLAEDTKVRSAEELKEMQDKVIKLQEELSENDKKIKALNHEIEELEKRKDKETGGILRSLEDALAEAQRVNTKSQSAFDLKKKNLACEESKRKELEKNMVEDSKTLAAKEKEVKKITDGLHALQEASNKDAEALAAAQQHFNAVSAGLSSNEDGAEATLAGQMMACKNDISKAQTEAKQAQMKLKHAQQELKNKQAEVKKMDSGYRKDQEALEAVKRLKEKLEAEMKKLNYEENKEESLLEKRRQLSRDIGRLKETYEALLARFPNLRFAYKDPEKNWNRNCVKGLVASLISVKDTSATTALELVAGERLYNVVVDTEVTGKKLLERGELKRRYTIIPLNKISARCIAPETLRVAQNLVGPDNVHVALSLVEYKPELQKAMEFVFGTTFVCDNMDNAKKVAFDKRIMTRTVTLGGDVFDPHGTLSGGARSQAASILTKFQELKDVQDELRIKENELRALEEELAGLKNTAEKYRQLKQQWEMKTEEADLLQTKLQQSSYHKQQEELDALKKTIEESEETLKNTKEIQRKAEEKYEVLENKMKNAEAERERELKDAQKKLDCAKTKADASSKKMKEKQQEVEAITLELEELKREHTSYKQQLEAVNEAIKSYESQIEVMAAEVAKNKESVNKAQEEVTKQKEVITAQDTVIKAKYAEVAKHKEQNNDSQLKIKELDHNISKHKREAEDGAAKVSKMLKDYDWINAERHLFGQPNSAYDFKTNNPKEAGQRLQKLQEMKEKLGRNVNMRAMNVLTEAEERYNDLMKKKRIVENDKSKILTTIEDLDQKKNQALNIAWQKVNKDFGSIFSTLLPGANAMLAPPEGQTVLDGLEFKVALGNTWKENLTELSGGQRQKQQNHTTG
3 | binds | Monofunctional C1-tetrahydrofolate synthase (enzyme) SSGGGGGGGGGREGLLGQRRPQDGQARSSCSPGGRTPAARDSIVREVIQNSKEVLSLLQEKNPAFKPVLAIIQAGDDNLMQEINQNLAEEAGLNITHICLPPDSSEAEIIDEILKINEDTRVHGLALQISENLFSNKVLNALKPEKDVDGVTDINLGKLVRGDAHECFVSPVAKAVIELLEKSGVNLDGKKILVVGAHGSLEAALQCLFQRKGSMTMSIQWKTRQLQSKLHEADIVVLGSPKPEEIPLTWIQPGTTVLNCSHDFLSGKVGCGSPRIHFGGLIEEDDVILLAAALRIQNMVSSGRRWLREQQHRRWRLHCLKLQPLSPVPSDIEISRGQTPKAVDVLAKEIGLLADEIEIYGKSKAKVRLSVLERLKDQADGKYVLVAGITPTPLGEGKSTVTIGLVQALTAHLNVNSFACLRQPSQGPTFGVKGGAAGGGYAQVIPMEEFNLHLTGDIHAITAANNLLAAAIDTRILHENTQTDKALYNRLVPLVNGVREFSEIQLARLKKLGINKTDPSTLTEEEVSKFARLDIDPSTITWQRVLDTNDRFLRKITIGQGNTEKGHYRQAQFDIAVASEIMAVLALTDSLADMKARLGRMVVASDKSGQPVTADDLGVTGALTVLMKDAIKPNLMQTLEGTPVFVHAGPFANIAHGNSSVLADKIALKLVGEEGFVVTEAGFGADIGMEKFFNIKCRASGLVPNVVVLVATVRALKMHGGGPSVTAGVPLKKEYTEENIQLVADGCCNLQKQIQITQLFGVPVVVALNVFKTDTRAEIDLVCELAKRAGAFDAVPCYHWSVGGKGSVDLARAVREAASKRSRFQFLYDVQVPIVDKIRTIAQAVYGAKDIELSPEAQAKIDRYTQQGFGNLPICMAKTHLSLSHQPDKKGVPRDFILPISDVRASIGAGFIYPLVGTMSTMPGLPTRPCFYDIDLDTETEQVKGLF
4 | binds | Structural maintenance of chromosomes protein 1A (other) MGFLKLIEIENFKSYKGRQIIGPFQRFTAIIGPNGSGKSNLMDAISFVLGEKTSNLRVKTLRDLIHGAPVGKPAANRAFVSMVYSEEGAEDRTFARVIVGGSSEYKINNKVVQLHEYSEELEKLGILIKARNFLVFQGAVESIAMKNPKERTALFEEISRSGELAQEYDKRKKEMVKAEEDTQFNYHRKKNIAAERKEAKQEKEEADRYQRLKDEVVRAQVQLQLFKLYHNEVEIEKLNKELASKNKEIEKDKKRMDKVEDELKEKKKELGKMMREQQQIEKEIKEKDSELNQKRPQYIKAKENTSHKIKKLEAAKKSLQNAQKHYKKRKGDMDELEKEMLSVEKARQEFEERMEEESQSQGRDLTLEENQVKKYHRLKEEASKRAATLAQELEKFNRDQKADQDRLDLEERKKVETEAKIKQKLREIEENQKRIEKLEEYITTSKQSLEEQKKLEGELTEEVEMAKRRIDEINKELNQVMEQLGDARIDRQESSRQQRKAEIMESIKRLYPGSVYGRLIDLCQPTQKKYQIAVTKVLGKNMDAIIVDSEKTGRDCIQYIKEQRGEPETFLPLDYLEVKPTDEKLRELKGAKLVIDVIRYEPPHIKKALQYACGNALVCDNVEDARRIAFGGHQRHKTVALDGTLFQKSGVISGGASDLKAKARRWDEKAVDKLKEKKERLTEELKEQMKAKRKEAELRQVQSQAHGLQMRLKYSQSDLEQTKTRHLALNLQEKSKLESELANFGPRINDIKRIIQSREREMKDLKEKMNQVEDEVFEEFCREIGVRNIREFEEEKVKRQNEIAKKRLEFENQKTRLGIQLDFEKNQLKEDQDKVHMWEQTVKKDENEIEKLKKEEQRHMKIIDETMAQLQDLKNQHLAKKSEVNDKNHEMEEIRKKLGGANKEMTHLQKEVTAIETKLEQKRSDRHNLLQACKMQDIKLPLSKGTMDDISQEEGSSQGEDSVSGSQRISSIYAREALIEIDYGDLCEDLKDAQAEEEIKQEMNTLQQKLNEQQSVLQRIAAPNMKAMEKLESVRDKFQETSDEFEAARKRAKKAKQAFEQIKKERFDRFNACFESVATNIDEIYKALSRNSSAQAFLGPENPEEPYLDGINYNCVAPGKRFRPMDNLSGGEKTVAALALLFAIHSYKPAPFFVLDEIDAALDNTNIGKVANYIKEQSTCNFQAIVISLKEEFYTKAESLIGVYPEQGDCVISKVLTFDLTKYPDANPNPNEQ
